Assay results: US10226509B2, “Lymphangiogenesis inhibitors for cancer and for graft survival” (TUFTS UNIVERSITY, priority 2014, dated 2019)
“Also recorded” adds a separate entry of the source.

How the values were obtained:
PDPN [1] = biological target: T1, PDPN (Homo sapiens, UniProt Q86YL7); assay: Affinity precipitation assay, PDPN; assay type: binding; settings: 0.1 M sugar
T1 construct: Within the whole cell lysate, an anti-PDPN-reactive 43-kDa component was detected; host or cells: primary lymphatic endothelial cells (LECs)
T1 sequence (Q86YL7 23-162): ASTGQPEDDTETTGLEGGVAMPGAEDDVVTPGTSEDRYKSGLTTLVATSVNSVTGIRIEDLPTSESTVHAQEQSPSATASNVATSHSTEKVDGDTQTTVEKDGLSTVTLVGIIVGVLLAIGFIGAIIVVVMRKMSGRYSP
Experimental: (§1) Five mg of plant lectins (Vector Labs) and galectins were conjugated to 330 mg of Pierce® NHS-activated agarose dry resin in accordance with the manufacturer's instructions (Thermo Scientific). Primary LECs (Lonza) were lysed in Triton lysis buffer (20 mM Tris-HCl, pH 7.4; 150 mM NaCl; 0.5% Triton X-100 with protease inhibitor cocktail). LEC lysates (250 μg in 500 μL lysis buffer supplemented with 10 mM MgCl2) were incubated with 40 μL (50% slurry) of agarose-conjugated lectins (4° C., overnight). Beads were pelleted by centrifugation at 3000 rpm for 1 min. Non-specific binding proteins were removed by washing the beads with Triton lysis buffer once and PBS twice. Supernatants were discarded; bound proteins were eluted by boiling the beads with 20 μL of 2× Laemmli sample buffer for 7 min, and examined by western blotting.
To determine whether PDPN binds to Gal-8 in a carbohydrate-dependent manner, LEC lysates were incubated with Gal-8-conjugated to agarose beads in the presence or absence of 0.1 M of lactose (an inhibiting sugar) or sucrose (a non-inhibiting sugar). Bound proteins were examined with total cell lysates (input) by western blot using an anti-PDPN antibody. To determine specificity of PDPN binding to Gal-8, LEC lysates were also incubated with agarose beads conjugated to Gal-1, Gal-3 and Gal-7. Within the whole cell lysate, an anti-PDPN-reactive 43-kDa component was detected (FIG. 7A).

VEGFR-3 [2] = assay: Affinity precipitation assay, VEGFR-3; assay type: binding, human; settings: 0.1 M sugar
Experimental: as §1
Next, a series of examples were performed to determine whether VEGF-C-induced lymphangiogenesis is dependent on Gal-8. To determine whether VEGFR-3 is a Gal-8-binding protein, LEC lysates were incubated with Gal-8-conjugated agarose beads in the presence or absence of 0.1 M of lactose (an inhibiting sugar) or sucrose (a non-inhibiting sugar). Bound proteins were examined and were compared to total cell lysates (input) by western blot using anti-VEGFR-3 antibody. Three forms of VEGFR-3 (125 kDa, 175 kDa and 195 kDa) were detected in total cell lysates (FIG. 5A) (Bando, H., et al. 2004. Int J Cancer 111:184-191.). […] Having shown that Gal-8 binds to VEGFR-3 in LECs and that the carbohydrate-binding activity of Gal-8 is required for the synergistic effect of Gal-8 on VEGF-C-induced LEC sprouting, it was of interest to determine whether VEGFR-3 bears 3′-sialylated glycans.

[3] = tested on: VEGF-A-induced LEC sprouting; assay: LEC sprouting assay: VEGF-A-induced sprouting; assay type: cell-based, human; settings: VEGF-A 50 ng/ml; 10 μg/ml
Experimental: LEC spheroids were generated by seeding primary LECs at passage 4 or 5 in each well of 384-well hanging-drop plates (3D Biomatrix) in complete EGM-2 MV medium containing 0.25% methyl cellulose according to the manufacturer's instructions (750 cells/well). After 18 hours, LEC spheroids were collected, resuspended in serum-free EBM-2 basal medium, and mixed with collagen solution (PureCol collagen, Advanced BioMatrix, 2.2 mg/ml in M199 medium, pH adjusted to 7.4 with NaHCO3 and NaOH). Aliquots of the LEC spheroid/collagen mixture (250 μl/well of 48-well plate) were incubated in the presence or absence of various test agents for 24 hr. […] Fluorescent images were acquired using the EVOS FL cell imaging system, pixels were inverted for better visualization and cumulative length of each sprout was calculated. Results were expressed as fold change compared to corresponding controls. […]
In addition, investigations were performed to determine whether VEGF-A/VEGFR-2 pathway, which also promotes lymphangiogenesis, is involved in Gal-8-mediated lymphangiogenesis. LEC spheroids were stimulated with Gal-8 (0.75 μM) in the presence or absence of VEGFR-3-Fc, VEGFR-2-Fc (10 μg/ml), Avastin (bevacizumab) (10 μg/ml) or control IgG (10 μg/ml) for 24 hours and then accumulated sprout lengths were quantified. […]

[4] = tested on: Gal-8-induced LEC sprouting; assay: LEC sprouting assay: Gal-8-induced sprouting with inhibitors or knockdown; assay type: cell-based, human; settings: Gal-8 0.75 μM, 24 h; TDG 20 mM; LY294002 20 μM; U0126 20 μM; PD0325901 1 μM; Avastin 10 μg/ml; Obtustatin 4 μM; antibodies 20 μg/ml; siRNA-transfected LECs
Experimental: LEC spheroids were generated by seeding primary LECs at passage 4 or 5 in each well of 384-well hanging-drop plates (3D Biomatrix) in complete EGM-2 MV medium containing 0.25% methyl cellulose according to the manufacturer's instructions (750 cells/well). After 18 hours, LEC spheroids were collected, resuspended in serum-free EBM-2 basal medium, and mixed with collagen solution (PureCol collagen, Advanced BioMatrix, 2.2 mg/ml in M199 medium, pH adjusted to 7.4 with NaHCO3 and NaOH). Aliquots of the LEC spheroid/collagen mixture (250 μl/well of 48-well plate) were incubated in the presence or absence of various test agents for 24 hr. At the end of the incubation period, spheroids were stained with Calcein AM (Invitrogen, 1 μg/mL, 37° C., and 30 min). Fluorescent images were acquired using the EVOS FL cell imaging system, pixels were inverted for better visualization and cumulative length of each sprout was calculated. Results were expressed as fold change compared to corresponding controls. […] Test agents used included thiodigalactoside (10 to 50 mM, Carbosynth), 3′-sialyl lactose (2 to 10 mM, Carbosynth), 6′-sialyl lactose (2 to 10 mM, Carbosynth), LY294002 (20 μM, Abeam), U0126 (20 μM, Abeam), PD0325901 (1 μM, Selleckchem), human VEGFR-3-Fc chimera (10 μg/ml, R&D), human VEGFR-2-Fc chimera (10 μg/ml, R&D), Avastin (10 μg/ml, bevacizumab, Genentech/Roche), human control IgG (10 μg/ml, Southern Biotech), anti-human podoplanin functional grade antibody (10 μg/ml, eBioscience), and rat IgG2a κ isotype control functional grade antibody (10 μg/ml, eBioscience).
To determine the role of these pathways on Gal-8-induced lymphangiogenesis, LEC spheroids were stimulated with Gal-8 (0.75 μM) in the presence or absence of PI3K inhibitor (LY294002, 20 μM) and two different MEK inhibitors (U0126, 20 μM; PD0325901, 1 μM). After overnight treatment with Gal-8, accumulated sprout lengths were quantified.

mouse corneas = assay: Corneal mouse micropocket lymphangiogenesis assay; assay type: in vivo; settings: for mean lymphatic vessel areas: seven days
Experimental: The corneal micropocket lymphangiogenesis assay was performed using implants containing a test agent, hydron (polyhydroxylmethylmethacrylate), and sucralfate (Cao, R., et al. 2011. Nat Protoc 6:817-826; Rogers, M. S., et al. 2007. Nat Protoc 2:2545-2550). Test agents included full-length Gal-8 (40-320 ng/pellet) and VEGF-C (160 ng/pellet). Implants containing hydron and sucralfate alone served as negative controls. The mice were anesthetized by intraperitoneal injection of a mixture of ketamine (90-120 mg/kg) and xylazine (10 mg/kg). The eyes were topically anesthetized with proparacaine and were gently proptosed (forwardly displaced) with forceps. Using a corneal blade and a stereoscope, intrastromal linear keratotomy was performed about 2 mm from the limbus. Using a von Graefe knife (Miltex), a pocket was extended towards the limbus, and the pellet was maneuvered into the pocket. The wound was coated with a veterinary ophthalmic ointment (Akorn) to prevent infection. Mouse corneas were harvested 7 days after pellet implantation, fixed in 4% paraformaldehyde/PBS (1 hour at 4° C.), washed with PBS, and fixed again in iced acetone (15 min at −20° C.). To quantitate the extent of lymphangiogenesis in Prox-1-EGFP reporter mice, flat mounts of the dissected corneas were evaluated by fluorescence microscopy. Fluorescent images were acquired by EVOS FL cell imaging system (Invitrogen), and vessel areas were calculated using the formula (Rogers, M. S., et al. 2007. Nat Protoc 2:2545-2550): vessel area=pellet distance×vessel length×clock hours×[…]. To quantitate the extent of lymphangiogenesis in WT and PDPN-deficient mice, corneas were stained with eFluor 570-anti-mouse LYVE-1 (clone ALY7, eBioScience, and 1:75) in 10% goat serum/0.2% Triton X-100/PBS overnight, 4° C. After several washes with 0.2% Triton X-100/PBS, the corneas were flattened and mounted with VECTASHIELD mounting medium (Vector Laboratories) and evaluated by fluorescence microscopy. In some examples, for comparisons, corneas were stained with Alexa Fluor® 488-anti-mouse CD31 (clone MEC13.3, 1:100, BioLegend) to visualize blood vessels.

VEGFR-3 [5] = assay: Cell surface expression of VEGFR-3 by flow cytometry; assay type: cell-based, human; settings: Gal-8 0.2 μM or VEGF-C 50 ng/ml
Experimental: (§2) Primary LECs were serum-starved overnight in basal EBM-2 medium. The cells were incubated with or without VEGF-C (50 ng/ml, PeproTech) or Gal-8 (0.2 μM) in serum-free EBM-2 medium for 10 and 30 min. At the end of the incubation period, cells were lifted with StemPro® Accutase® cell dissociation reagent (Invitrogen), washed with PBS and fixed with 4% paraformaldehyde/PBS on ice for 10 min, and were then stained using rat anti-human PDPN (1:500, BioLegend) and mouse anti-human VEGFR-3 (clone 9D9F9) (1:100, BioLegend) primary antibodies in cell staining buffer (BioLegend, 45 min on ice) and Alexa Fluor® 488 donkey anti-rat and Alexa Fluor® 647 anti-mouse secondary antibodies (1:1000, Invitrogen, 30 min on ice). For negative control, the primary antibodies were omitted. The stained cells were fixed with 2% paraformaldehyde/PBS, analyzed with BD FACSCalibur, and the mean fluorescence intensity of VEGFR-3 and PDPN were quantified with the FlowJo software (version 9.5.2).

PDPN [6] = assay: Cell surface expression of PDPN by flow cytometry; assay type: cell-based, human; settings: 30 min post-treatment; VEGF-C 50 ng/ml
Experimental: as §2

## OC[C@H]1O[C@@](CO)(O[C@H]2O[C@H](CO)[C@@H](O)[C@H](O)[C@H]2O)[C@@H](O)[C@@H]1O [sucrose, reference compound]
PDPN [1]
  inhibition of binding of PDPN to Gal-8: not by sucrose
VEGFR-3 [2]
  inhibition of binding of VEGFR-3 to Gal-8: not sucrose, a noncompeting sugar

## Avastin: an antibody targeted against VEGF-A
[3]
  effect on VEGF-A-induced LEC sprouting (in words): almost completely abolished
[4]
  effect on Gal-8-induced LEC sprouting (in words): had no effect

B1: VEGF-C: lymphangiogenic growth factor used as positive control (protein)
chain: AHYNTEILKSIDNEWRKTQCMPREVCIDVGKEFGVATNTFFKPPCVSVYRCGGCCNSEGLQCMNTSTSYLSKTLFEITVPLSQGPKPVTISFANHTSCRCMSKLDVYRQVHSIIRR
Mouse corneas; 160 ng pellet, one week
  extent of vessel formation in galectin-8 KO mice compared to WT: significantly reduced
Mouse corneas; PDPN KO mice, 160 ng pellet
  mean lymphatic vessel areas: 0.67 mm^2
Mouse corneas; WT mice, 160 ng pellet
  mean lymphatic vessel areas: 1.35 mm^2
Mouse corneas; one week after implantation, Gal-8 40-320 ng/pellet, VEGF-C 160 ng, WT or Prox1-EGFP mice
  lymphangiogenesis induced by pellet in cornea (in words): markedly induced both hemangiogenesis and lymphangiogenesis; also recorded: induce robust growth of lymphatic vessels
VEGFR-3 [5]
  decrease of cell surface expression of VEGFR-3: about 40%
PDPN [6]
  decrease of cell surface expression of PDPN: about 5%
